Test results from patent US20200199241A1 (Chugai, published 2020).
Substitutions are numbered along the chain they refer to.

B1: IgG1-F906 (antibody)
heavy: QVQLQESGPGLVKPSETLSLTCAVSGHSISHDHAWSWVRQPPGEGLEWIGFISYSGITNYNPSLQGRVTISRDNSKNTLYLQMNSLRAEDTAVYYCARSLARTTAMDYWGEGTLVTVSSASTKGPSVFPLAPSSKSTSGGTAALGCLVKDYFPEPVTVSWNSGALTSGVHTFPAVLQSSGLYSLSSVVTVPSSSLGTQTYICNVNHKPSNTKVDKKVEPKSCDKTHTCPPCPAPELLGGPSVFLFPPKPKDTLYISRTPEVTCVVVDVSHEDPEVKFNWYVDGVEVHNAKTKPREEQYNSTYRVVSVLTVLHQDWLDLKEYKCKVSNKALPAPIEKTISKAKGQPREPQVYTLPPSRDELTKNQVSLTCLVKGFYPSDIAVEWESNGQPENNYKTTPPVLDSDGSFFLYSKLTVDKSRWQQGNVFSCSVMHEALHYHYTQKSLSLSP
light: not shown
notes: EU numbering; copies: 2 + 2
B2: IgG1-F938 (antibody)
heavy: B1 heavy with L237K, S241K, D317N, L318G, Y438V
light: not shown
notes: copies: 2 + 2
B3: IgG1-F957 (antibody)
heavy: B1 heavy with D317N, L318G, H437N, Y438V
light: not shown
notes: EU numbering; copies: 2 + 2
B4: IgG1-F947 (antibody)
heavy: B1 heavy with T252V, T309Q, V310P, Q313A, D317N, L318G, Y438V
light: not shown
notes: copies: 2 + 2
B5: IgG1-F927 (antibody)
heavy: B1 heavy with L237R, S241K, S256T, D317N, L318G, Y438I
light: not shown
notes: EU numbering; copies: 2 + 2
B6: IgG1-F924 (antibody)
heavy: B1 heavy with L237K, S241K, T309Q, Q313A, D317N, L318G, Y438I
light: not shown
notes: EU numbering; copies: 2 + 2
B7: IgG1-F990 (antibody)
heavy: B1 heavy with L237R, S241K, T309Q, V310P, Q313A, D317N, L318G, Y438V
light: not shown
notes: EU numbering; copies: 2 + 2
B8: IgG1-F996 (antibody)
heavy: B1 heavy with L237R, P240D, S241K, D317N, L318G, Y438V
light: not shown
notes: EU numbering; copies: 2 + 2
B9: IgG1-F918 (antibody)
heavy: B1 heavy with D282E, D317N, L318G, N386A, N391A
light: not shown
notes: EU numbering; copies: 2 + 2
B10: IgG1-F991 (antibody)
heavy: B1 heavy with L237R, S241K, N288E, T309Q, Q313A, D317N, L318G, Y438V
light: not shown
notes: EU numbering; copies: 2 + 2
B11: IgG1-F992 (antibody)
heavy: B1 heavy with L237R, S241K, T309Q, Q313A, D317N, L318G, M430I, Y438V
light: not shown
notes: EU numbering; copies: 2 + 2
B12: IgG1-F912 (antibody)
heavy: B1 heavy with L318S
light: not shown
notes: EU numbering; copies: 2 + 2
B13: IgG1-F978 (antibody)
heavy: B1 heavy with S256Q, D317N, L318G
light: not shown
notes: EU numbering; copies: 2 + 2
B14: IgG1-F954 (antibody)
heavy: B1 heavy with D317N, L318G, H437K, Y438V
light: not shown
notes: EU numbering; copies: 2 + 2
B15: IgG1-F913 (antibody)
heavy: B1 heavy with L318T
light: not shown
notes: EU numbering; copies: 2 + 2
B16: IgG1-F988 (antibody)
heavy: B1 heavy with P240D, T252V, N288E, D317N, L318G, Y438V
light: not shown
notes: EU numbering; copies: 2 + 2
B17: IgG1-F909 (antibody)
heavy: B1 heavy with L318P
light: not shown
notes: EU numbering; copies: 2 + 2
B18: IgG1-F926 (antibody)
heavy: B1 heavy with L237K, S241K, S256T, D317N, L318G, Y438I
light: not shown
notes: EU numbering; copies: 2 + 2
B19: IgG1-F998 (antibody)
heavy: B1 heavy with K250Y, T252V, D317N, L318G, Y438V
light: not shown
notes: EU numbering; copies: 2 + 2
B20: IgG1-F995 (antibody)
heavy: B1 heavy with L237R, P240D, S241K, D317N, L318G
light: not shown
notes: EU numbering; copies: 2 + 2
B21: IgG1-F915 (antibody)
heavy: B1 heavy with L318W
light: not shown
notes: EU numbering; copies: 2 + 2
B22: IgG1-F944 (antibody)
heavy: B1 heavy with T252V, D317N, L318G, Y438V
light: not shown
notes: EU numbering; copies: 2 + 2
B23: IgG1-F966 (antibody)
heavy: B1 heavy with S256A, D317N, L318G
light: not shown
notes: EU numbering; copies: 2 + 2
B24: IgG1-F943 (antibody)
heavy: B1 heavy with L237R, S241K, T309Q, Q313A, D317N, L318G, Y438V
light: not shown
notes: EU numbering; copies: 2 + 2
B25: IgG1-F997 (antibody)
heavy: B1 heavy with K250I, T252V, D317N, L318G, Y438V
light: not shown
notes: EU numbering; copies: 2 + 2
B26: IgG1-F989 (antibody)
heavy: B1 heavy with L237R, S241K, V310P, D317N, L318G, Y438V
light: not shown
notes: EU numbering; copies: 2 + 2
B27: IgG1-F970 (antibody)
heavy: B1 heavy with S256G, D317N, L318G
light: not shown
notes: EU numbering; copies: 2 + 2
B28: IgG1-F929 (antibody)
heavy: B1 heavy with S256T, T309Q, Q313A, D317N, L318G, Y438I
light: not shown
notes: EU numbering; copies: 2 + 2
B29: IgG1-F930 (antibody)
heavy: B1 heavy with P240D, T252V, N288E, D317N, L318G
light: not shown
notes: EU numbering; copies: 2 + 2
B30: IgG1-F935 (antibody)
heavy: B1 heavy with G239K, P240D, T252V, D317N, L318G
light: not shown
notes: EU numbering; copies: 2 + 2
B31: IgG1-F980 (antibody)
heavy: B1 heavy with S256V, D317N, L318G
light: not shown
notes: EU numbering; copies: 2 + 2
B32: IgG1-F960 (antibody)
heavy: B1 heavy with D317N, L318G, H437R, Y438V
light: not shown
notes: EU numbering; copies: 2 + 2
B33: IgG1-F910 (antibody)
heavy: B1 heavy with L318Q
light: not shown
notes: EU numbering; copies: 2 + 2
B34: IgG1-F933 (antibody)
heavy: B1 heavy with L236R, P240D, T252V, D317N, L318G
light: not shown
notes: EU numbering; copies: 2 + 2
B35: IgG1-F945 (antibody)
heavy: B1 heavy with T252V, V310P, D317N, L318G, Y438V
light: not shown
notes: EU numbering; copies: 2 + 2
B36: IgG1-F946 (antibody)
heavy: B1 heavy with T252V, T309Q, Q313A, D317N, L318G, Y438V
light: not shown
notes: EU numbering; copies: 2 + 2
B37: IgG1-F920 (antibody)
heavy: B1 heavy with N288S, D317N, L318G, N386A, N391A
light: not shown
notes: EU numbering; copies: 2 + 2
B38: IgG1-F987 (antibody)
heavy: B1 heavy with P240D, T252V, T309Q, Q313A, D317N, L318G, Y438V
light: not shown
notes: EU numbering; copies: 2 + 2
B39: IgG1-F922 (antibody)
heavy: B1 heavy with L237K, S241K, N288E, D317N, L318G, Y438I
light: not shown
notes: EU numbering; copies: 2 + 2
B40: IgG1-F934 (antibody)
heavy: B1 heavy with G238K, P240D, T252V, D317N, L318G
light: not shown
notes: EU numbering; copies: 2 + 2
B41: IgG1-F907 (antibody)
heavy: B1 heavy with L318M
light: not shown
notes: EU numbering; copies: 2 + 2
B42: IgG1-F942 (antibody)
heavy: B1 heavy with L237K, S241K, T309Q, Q313A, D317N, L318G, Y438V
light: not shown
notes: EU numbering; copies: 2 + 2
B43: IgG1-F925 (antibody)
heavy: B1 heavy with L237R, S241K, T309Q, Q313A, D317N, L318G, Y438I
light: not shown
notes: EU numbering; copies: 2 + 2
B44: IgG1-F914 (antibody)
heavy: B1 heavy with L318V
light: not shown
notes: EU numbering; copies: 2 + 2
B45: IgG1-F911 (antibody)
heavy: B1 heavy with L318R
light: not shown
notes: EU numbering; copies: 2 + 2
B46: IgG1-F972 (antibody)
heavy: B1 heavy with S256I, D317N, L318G
light: not shown
notes: EU numbering; copies: 2 + 2
B47: IgG1-F971 (antibody)
heavy: B1 heavy with S256H, D317N, L318G
light: not shown
notes: EU numbering; copies: 2 + 2
B48: IgG1-F921 (antibody)
heavy: B1 heavy with N288E, D317N, L318G, N386A, N391A
light: not shown
notes: EU numbering; copies: 2 + 2
B49: IgG1-F931 (antibody)
heavy: B1 heavy with P240D, T252V, D317N, L318G, Y438I
light: not shown
notes: EU numbering; copies: 2 + 2
B50: IgG1-F993 (antibody)
heavy: B1 heavy with T309Q, Q313A, D317N, L318G, Y438V
light: not shown
notes: EU numbering; copies: 2 + 2
B51: IgG1-F940 (antibody)
heavy: B1 heavy with P240D, T252V, D317N, L318G, Y438V
light: not shown
notes: EU numbering; copies: 2 + 2
B52: IgG1-F999 (antibody)
heavy: B1 heavy with T252V, E260H, D317N, L318G, Y438V
light: not shown
notes: EU numbering; copies: 2 + 2
B53: IgG1-F932 (antibody)
heavy: B1 heavy with T252V, D317N, L318G
light: not shown
notes: EU numbering; copies: 2 + 2
B54: IgG1-F937 (antibody)
heavy: B1 heavy with P240D, S241K, T252V, D317N, L318G
light: not shown
notes: EU numbering; copies: 2 + 2
B55: IgG1-F908 (antibody)
heavy: B1 heavy with L318N
light: not shown
notes: EU numbering; copies: 2 + 2
B56: IgG1-F923 (antibody)
heavy: B1 heavy with L237R, S241K, N288E, D317N, L318G, Y438I
light: not shown
notes: EU numbering; copies: 2 + 2
B57: IgG1-F917 (antibody)
heavy: B1 heavy with N288S, D317N, L318G
light: not shown
notes: EU numbering; copies: 2 + 2
B58: IgG1-F1008 (antibody)
heavy: B1 heavy with L237R, S241K, T252V, D317N, L318G, Y438V
light: not shown
notes: EU numbering; copies: 2 + 2
B59: IgG1-F994 (antibody)
heavy: B1 heavy with D317N, L318G, N327G
light: not shown
notes: EU numbering; copies: 2 + 2
B60: IgG1-F939 (antibody)
heavy: B1 heavy with L237R, S241K, D317N, L318G, Y438V
light: not shown
notes: copies: 2 + 2

The binders below were run against T1, soluble human FcRn complexed with β2-microglobulin (human, UniProt P61769 21-119, limits assumed) (assay: Biacore SPR, pH 7.0;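 also: test antibodies captured on a Protein L chip with human FcRn flowed over as analyte, KD obtained as the ratio of dissociation to association rate constants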).
T1 construct: also called hFcRn
Method: A kinetic analysis of binding between human FcRn and the aforementioned antibodies was carried out using the BIACORE™ T100 or T200 surface plasmon resonance system (GE Healthcare). The antibodies being tested were captured on the CM4 Sensor Chip (GE Healthcare) on which a suitable amount of Protein L (ACTIGEN® protein (Alltech)) was suitably immobilized by amine coupling. Next, diluted human FcRn and a running buffer used as a blank were injected to allow the human FcRn to interact with the antibody captured on the sensor chip. A buffer consisting of 50 mmol/L sodium phosphate, 150 mmol/L NaCl and 0.05% (w/v) polysorbate 20 (Tween 20®) (pH 7.0 or pH 7.4) was used for the running buffer, and each buffer was also used to dilute the human FcRn. 10 mmol/L glycine-HCl (pH 1.5) was used to regenerate the sensor chip. All measurements of binding were carried out at 25° C. The KD(M) of each antibody to human FcRn was calculated based on kinetics parameters, i.e., the association rate constant ka (1/Ms) and the dissociation rate constant kd (1/s) calculated from a sensorgram obtained by the measurement. The BIACORE™ T100 or T200 Evaluation Software (GE Healthcare) was used to calculate each parameter.

Row | Kd | Binder
1 | 150 nM | B1
2 | 160 nM | B2
3 | 770 nM | B3
4 | 11 nM | B4
5 | 100 nM | B5
6 | 34 nM | B6
7 | 9.4 nM | B7
8 | 130 nM | B8
9 | 280 nM | B9
10 | 13 nM | B10
11 | 51 nM | B11
12 | 120 nM | B12
13 | 1300 nM | B13
14 | 530 nM | B14
15 | 110 nM | B15
16 | 69 nM | B16
17 | 130 nM | B17
18 | 110 nM | B18
19 | 850 nM | B19
20 | 290 nM | B20

Row | Kd | Binder
21 | 230 nM | B21
22 | 170 nM | B22
23 | 310 nM | B23
24 | 40 nM | B24
25 | 380 nM | B25
26 | 14 nM | B26
27 | 2500 nM | B27
28 | 29 nM | B28
29 | 140 nM | B29
30 | 320 nM | B30
31 | 180 nM | B31
32 | 800 nM | B32
33 | 140 nM | B33
34 | 300 nM | B34
35 | 17 nM | B35
36 | 43 nM | B36
37 | 250 nM | B37
38 | 40 nM | B38
39 | 59 nM | B39
40 | 310 nM | B40

Row | Kd | Binder
41 | 130 nM | B41
42 | 42 nM | B42
43 | 32 nM | B43
44 | 150 nM | B44
45 | 130 nM | B45
46 | 260 nM | B46
47 | 2600 nM | B47
48 | 120 nM | B48
49 | 120 nM | B49
50 | 38 nM | B50
51 | 150 nM | B51
52 | 210 nM | B52
53 | 320 nM | B53
54 | 310 nM | B54
55 | 150 nM | B55
56 | 60 nM | B56
57 | 250 nM | B57
58 | 170 nM | B58
59 | 280 nM | B59
60 | 150 nM | B60
